Measurements published in the RNAGym collection of RNA variant scans (doi:10.1073/pnas.2313332121).

B1: TPR t1 (parent)
chain: GACCAAUCUGCCCUCAGAGCUCGAGAACAUCUUCGGAUGCAGAGGAGGCAGGCUUCGGUGGCGCGAUAGCGCCAACGUCCUCAACCUCCAAUGCAUCCCACCACAUGAUGAUGCCUGAAGAGCCUUGGUUUUUUG

Variants of: B1
Experiment: polymerase ribozyme fitness, log enrichment relative to wild type (log ratio); higher = more active; in vitro selection for triplet polymerase activity
In short: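 Each subunit of a heterodimeric triplet polymerase ribozyme was mutagenized into a library by PCR, transcribed, and subjected to one round of in vitro selection, run in triplicate. Libraries were annealed with a biotinylated primer, the partner subunit and triplets, incubated frozen at −7 °C, and extended constructs were gel-excised, captured on streptavidin beads and recovered by RT-PCR. Input and output libraries were sequenced on Illumina, keeping genotypes with ≥10 input reads and ≥1 read per output. Fitness is log base 2 of genotype enrichment divided by wild-type enrichment, from inverse-variance-weighted replicate averages.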

Variant | polymerase ribozyme fitness (log ratio)
C11G C79U | -0.0995
G10C C13G | -0.638
G10C U14G C70U A91C | -4.25
C11G C15U G45A C73A A83U | -1.42
C11A G69U C70U | -2.77
C11G G25C G39A C56A U67G C72A C82A A111C | -6.95
C11A C70G | -3.13
C11A C70U | -2.4
C11G A105U | -2.2
C11G A27G | -1.52
G10U A75U G77A C86A | -1.69
G10U G42U G69U C115A | -1.2
G10C U78C | -1.63
C11U A18G C72A | -3.7
C11G C15U G45C | -1.34
C11G C104A | -1.42
C11A C85U G120U | 0.755
C11A C22U | -5.15
C11G A27U C49A G61C A75U A84G | -3.81
C11G G65C | -5.03
C11A G71C G113A | -2.46
C11A A16U A24U C31G C34G A37C C73A C115U G117C | -7.35
C11G C73U U96A | -0.543
G10U G93A C99U | -4.71

Variant | polymerase ribozyme fitness (log ratio)
C11G G42U U59A G60U | -1.24
C11A C13G C62G | -3.87
C11A U109A | -6.59
G10U A37U G52U C56U C73G U116G | -4.51
C11A A66U G71A A121C U130A | -1.61
C11G G17A C124U | -3.84
C11A G69U | -0.0927
C11A G69A | -4.25
C11G U87G C123G | 1.19
G10U C70U A83U A90G C115U | -2.59
G10U C11U G71U C79U | -0.361
C11G C20U C22A G39C | -5.35
C11G C49A C64U | -0.24
C11A C12A C22A C40U A46U U78C C114A | -6.96
G10U G52U U96G | -0.544
C11A A46U G93A | -3.04
C11G G44C C72G C88U C101U | -0.537
G10C U59G C88A C104A | -3.65
C11A U126A U129C | -2.33
G10U C101A U125G | -2.32
C11G A111G G120C G127U | 0.661
C11G A24G A37C G42A U92C A118U | -3.62
C11G G42A C72A C88U | -1.46
G10U G25U C34A C99U G113C | -6.47

Variant | polymerase ribozyme fitness (log ratio)
G10C C13A G58A G71A C98U | -3.11
C11A G52A G110U G135U | -5.37
C11G A18C C49A C88G U109A | -6.8
C11A G71A G77A C82G | -3.86
C11G C22A A26C C102A | -5.19
C11G C73G C101U U112C G117C | -3.04
C11G C13G G45A G117A | -1.92
C11G G44C G77A C80A U130A U131A | -4.18
G10U G23U A26G G63A C114G | -5.43
C11G C98A | -3.33
C11A C40U G45A G61A U96G C124A | 0.365
G10U G44C G61C | -3.37
C11G A16C A37C G60U C89G C114G | -6.69
C11A G113C | -2.93
C11G C13U A84U A91U G93C | -2.67
G10U C15G | -1.83
C11G C31A | -4.96
C11G G17A | -3.46
C11G G57A C73A C123G | 0.666
C11A C99A C123A | -5.29
G10U C11G G60C A95G | -0.947
G10U C22G C56U C72U A90G C114U | -3.41
G10C C15A G39C | -4.62
G10C G48C C102U | -2.77

Variant | polymerase ribozyme fitness (log ratio)
C11A G48A C62U G128C | -3
G10U C11G G35A C64U C123A | -5.01
G10U C13G C73U G122U | -0.626
C11G A84U G122A | 0.157
C11A G42U G61U C114G U130A U132G | -4.29
G10U G17C G45U G93U C123G | -4.78
G10C C73A C101U U130C | -0.689
C11G C49A U81G G93U C101G U109A | -5.65
C11A C15U C34G C62G A95U G110U G120A | -7.3
C11A C62U | -1.47
C11A C62A | -2.86
C11A C62G | -2.04
C11G G42A A121C | 0.0348
C11G C15A U106A G117U G127U | -0.216
C11G C82U G117A | -0.654
C11G C73G C85A A111G | -1.47
G10U C56U U116A | -3.65
C11G C56U | 0.107
C11A G71A A91G A121U | 0.674
C11A A46U C53A C72A | -2.19
C11G A24G C49G U59G | -2.66
C11G G69U | 0.709
G10U G47C C64U | -1.28
C11G U32C | -0.0143

Variant | polymerase ribozyme fitness (log ratio)
C11A G36A G61U G128A | -4.02
G10U C49U C72G C82A C114A | -2.83
C11G G48U | -1.46
C11G G48A | -0.377
G10U C101A | -1.56
C11G G36U C56G C82U | -0.948
G10C G42C G44U C72U U87G | -5.88
G10C G42A G63U A91C G113A G122U | -4.47
C11G U78G C98U | -0.594
G10U A50C C80U G120U | -0.0895
C11G G71C | -0.604
C11G G71A | -0.503
G10U G35C | -5.02
C11G C15U C56U A83U | -1.12
G10C G35A G69U U81G C82G C123A | -2.07
G10U U14A | -1.65
C11G G39A C53G | -0.759
C11G G93U C123U | 0.981
G10C G120U | -1.23
G10U G52U C73G | -0.827
C11G G35C G45U G71A U81A U112A U125A | -6.05
G10U | -0.124
C11G C64U C72A C89U | -1.01
G10U C13U G57C G58U C88U G107A C123U | -6.52

Variant | polymerase ribozyme fitness (log ratio)
C11A G51U C85U G120C | -3.38
C11G C62A U106A | -0.272
C11G C70A A95C U112A U132C | -1.46
G10U U14A C53G A95U G120U | 0.647
C11A G45U A84G C101U G122A | -2.1
C11G U112A | 1.42
C11G C94U | -0.128
C11G C124G | 1.42
C11A G69A C86U | -3.51
C11A U38C | -2.34
C11G C22G G36A C70U A83C | -5.41
C11G C99U | -2.71
C11U A16U A26U C62A G120C | -5.1
C11G A18U A46U G57A | -4.09
C11G G35U C82A A105C C123A C124A | -5.28
C11A C15A A37G C40A G120U | -6.11
C11G A26C G77U U81A C97U G113A | -6.37
G10U C53G C56U A74C C76A A95G G122U | -0.515
C11A A84U U92C C98U | -4.14
G10U G17U G45A C85U C123G | -0.92
G10U A26U G45A | -2.84
C11A A18C | -3.94
C11A A18U | -3
G10U G60U | -0.931

Variant | polymerase ribozyme fitness (log ratio)
C11G G61U U87G | 0.243
C11G A16G G60A C88U C124A | -0.731
C11A C12A C62U C102A C115U U130G | -8.31
G10U C28U C53U C73U U96C C104A G110A | 0.843
C11G C13G C56U G93A | -0.689
C11A C101G | -3.13
C11G C31U U55C A90G | -4.94
C11A G52A C70U A90G | -2.22
C11A C56A | -1.49
C11A C56U G69A C76A C79A C124A | -7.17
G10U C13G U78A C104U | 0.299
G10C C15U | -0.996
C11G U32C G35C C97U G120C | -2.23
G10U C20A C49U G65C C94A U109G | -7.47
C11G U14A A46U | -1.11
C11A A27C | -5.15
C11G G60A G120A G135A | 1.87
C11A U21G G120U C123A | -0.701
C11G G61U U96C | -0.274
G10U U92G C94U U133A | -2.28
C11A A18U C49A C123G | -2.08
C11G G36C G77A | -0.0394
C11A G93C C102A | -3.43
